Source: paper PMC3915908 (Cell Research, 2013)

T1: C-terminal domain of Pat1 (Pat1C), wild type (S. cerevisiae, UniProt P25644 422-796)
T1 sequence: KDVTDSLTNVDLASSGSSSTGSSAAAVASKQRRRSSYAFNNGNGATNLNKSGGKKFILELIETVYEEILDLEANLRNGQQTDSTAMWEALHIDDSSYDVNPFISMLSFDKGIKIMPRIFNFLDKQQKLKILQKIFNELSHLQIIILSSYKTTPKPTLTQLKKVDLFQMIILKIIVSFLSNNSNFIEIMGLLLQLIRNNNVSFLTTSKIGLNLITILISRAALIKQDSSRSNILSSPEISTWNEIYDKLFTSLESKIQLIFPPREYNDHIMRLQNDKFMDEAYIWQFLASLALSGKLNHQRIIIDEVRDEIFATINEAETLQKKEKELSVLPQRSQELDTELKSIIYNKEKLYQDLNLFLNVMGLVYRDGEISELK

B1: Lsm2 (natural protein)
chain: MLFFSFFKTLVDQEVVVELKNDIEIKGTLQSVDQFLNLKLDNISCTDEKKYPHLGSVRNIFIRGSTVRYVYLNKNMVDTNLLQDATRREVMTERK
B2: Lsm2-3 subcomplex, wild type (complex)
chain 1: MLFFSFFKTLVDQEVVVELKNDIEIKGTLQSVDQFLNLKLDNISCTDEKKYPHLGSVRNIFIRGSTVRYVYLNKNMVDTNLLQDATRREVMTERK
chain 2: METPLDLLKLNLDERVYIKLRGARTLVGTLQAFDSHCNIVLSDAVETIYQLNNEELSESERRCEMVFIRGDTVTLISTPSEDDDGAVEI

Experiments:
[1] = biological target: T1, C-terminal domain of Pat1 (Pat1C), wild …; test: crystal structure
[2] = biological target: T1, C-terminal domain of Pat1 (Pat1C), wild …; test: native gel or EMSA

| Binder | binding result [1] | binding result [2] |
| --- | --- | --- |
| B1 | binds | – |
| B2 | – | binds |
